Measured values taken from PMC9974302, “Bacterial division ring stabilizing ZapA versus destabilizing SlmA modulate FtsZ switching between biomolecular condensates and polymers” (Open Biology, 2023).

B1: FtsZ (natural protein, E. coli, UniProt P0A9A6 1-383, looked up)
chain: MFEPMELTNDAVIKVIGVGGGGGNAVEHMVRERIEGVEFFAVNTDAQALRKTAVGQTIQIGSGITKGLGAGANPEVGRNAADEDRDALRAALEGADMVFIAAGMGGGTGTGAAPVVAEVAKDLGILTVAVVTKPFNFEGKKRMAFAEQGITELSKHVDSLITIPNDKLLKVLGRGISLLDAFGAANDVLKGAVQGIAELITRPGLMNVDFADVRTVMSEMGYAMMGSGVASGEDRAEEAAEMAISSPLLEDIDLSGARGVLVNITAGFDLRLDEFETVGNTIRAFASDNATVVIGTSLDPDMNDELRVTVVATGIGMDKRPEITLVTNKQVQQPVMDRYQQHGMAPLTQEQKPVAKVVNDNAPQTAKEPDYLDIPAFLRKQAD
modifications: Alexa Fluor 488 or Alexa Fluor 647 on amino groups, only in the tracer fraction (below 1 mole of dye per mole of protein)
notes: Cell division GTPase FtsZ, E. coli; The methods name no species for the construct; Oligomers without GTP (GDP form), polymers with GTP; also called FtsZ-Alexa 647; source: purified as described in [6,22,25]

Key:
FtsZ = target: B1; test: fluorescence correlation spectroscopy; FtsZ polymers: 10 uM FtsZ, 2 mM GTP and enzymatic GTP regeneration system; 10 nM labelled tracer; solution buffer; conditions: both partners purified
[1] = target: the molecule itself; test: fluorescence correlation spectroscopy; no GTP (FtsZ oligomers); solution buffer with 100 mM KCl; 10 nM ZapA-Alexa 488 or SBS-Alexa 488 as tracer; 5 uM ZapA, 5 uM SlmA, 1 uM SBS, 50 or 20 uM FtsZ
[2] = target: the molecule itself; test: fluorescence polarisation; anisotropy with time after addition of GTP; 5 uM FtsZ with 50 nM FtsZ-Alexa 488 as tracer; solution buffer with 300 mM KCl; 27 C

Row | Binder | binding result (FtsZ) | stoichiometry N [1] | binding result [2]
1 | ZapA (natural protein, E. coli, UniProt P0ADS2 1-109, looked up, Alexa Fluor 488 on amino groups, only in the tracer fraction (below 1 mole of dye per mole of protein), Cell division protein ZapA, E. coli; Dimer-tetramer equilibrium that depends on salt; source: BL21(DE3) strain carrying plasmid pEJR029b, purified) MSAQPVDIQIFGRSLRVNCPPDQRDALNQAADDLNQRLQDLKERTRVTNTEQLVFIAALNISYELAQEKAKTRDYAASMEQRIRMLQQTIEQALLEQGRITEKTNQNFE | binds | 4 | 
2 | B1 |  |  | binds
